Laboratory results published in publication PMC8529701, “Biofoundry-assisted expression and characterization of plant proteins”.

Molecular target: T1, AtTGA2 (6xHis-HRV3C-AtTGA2-HiBiT, plasmid pEPQDKN0742) (UniProt P43273 1-330)
T1 sequence: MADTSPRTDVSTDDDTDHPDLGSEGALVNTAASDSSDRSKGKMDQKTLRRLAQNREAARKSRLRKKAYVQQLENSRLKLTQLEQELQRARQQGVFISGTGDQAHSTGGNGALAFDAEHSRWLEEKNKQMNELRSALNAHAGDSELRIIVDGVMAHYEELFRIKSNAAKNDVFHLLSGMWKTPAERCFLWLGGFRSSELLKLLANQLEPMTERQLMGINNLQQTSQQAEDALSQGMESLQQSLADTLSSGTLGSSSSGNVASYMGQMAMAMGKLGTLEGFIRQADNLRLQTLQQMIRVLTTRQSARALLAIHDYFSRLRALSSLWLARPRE
Assay: EMSA; 500 ng poly(dI-dC); 20 mM Tris-HCl pH 8.0, 50 mM KCl, 2 mM DTT, 1 mM EDTA, 500 ng poly(dI-dC), 5% glycerol, 0.05% IGEPAL CA630, 0.1 mg/ml BSA; about 500 pmol protein, 5.5 pmol probe; room temperature 1 h; 6% TBE gel
Conditions: protein: ivt; tags: N-terminal NET-6xHis-HRV3C (as described for plasmid); C-terminal HiBiT; label: Alexa-488 at 5' end of the complementary strand (Klenow extension of labelled primer S3); blunt

B1: TGA TFBS probe (dsDNA)
DNA 1: GACCCCTATTGCAGCTATTTCACCTGACGTAAGGGATGACGCACAGGCCATCACGCAGTA
DNA 2: TACTGCGTGATGGCCTGTGCGTCATCCCTTACGTCAGGTGAAATAGCTGCAATAGGGGTC
binding result: binds

B2: Random control probe (dsDNA)
DNA 1: GACCCCTATTGCAGCTATTTCACACATACCAACGCTTAGCGCAATGGCCATCACGCAGTA
DNA 2: TACTGCGTGATGGCCATTGCGCTAAGCGTTGGTATGTGTGAAATAGCTGCAATAGGGGTC
binding result: no binding
